{"source": "patent US12006519B2", "about": "“Polymerase mutants and use with 3′-OH unblocked reversible terminators” (Agilent Technologies, Inc., priority 2021, dated 2024)", "molecules": {"B1": {"name": "TdT: commercially available preparation of calf thymus terminal deoxynucleotidyl transferase (Promega) (protein, UniProt P06526 1-509, looked up)", "DNA nucleotidylexotransferase": "MDPLCTASSGPRKKRPRQVGASMASPPHDIKFQNLVLFILEKKMGTTRRNFLMELARRKGFRVENELSDSVTHIVAENNSGSEVLEWLQVQNIRASSQLELLDVSWLIESMGAGKPVEITGKHQLVVRTDYSATPNPGFQKTPPLAVKKISQYACQRKTTLNNYNHIFTDAFEILAENSEFKENEVSYVTFMRAASVLKSLPFTIISMKDTEGIPCLGDKVKCIIEEIIEDGESSEVKAVLNDERYQSFKLFTSVFGVGLKTSEKWFRMGFRSLSKIMSDKTLKFTKMQKAGFLYYEDLVSCVTRAEAEAVGVLVKEAVWAFLPDAFVTMTGGFRRGKKIGHDVDFLITSPGSAEDEEQLLPKVINLWEKKGLLLYYDLVESTFEKFKLPSRQVDTLDHFQKCFLILKLHHQRVDSSKSNQQEGKTWKAIRVDLVMCPYENRAFALLGWTGSRQFERDIRRYATHERKMMLDNHALYDKTKRVFLKAESEEEIFAHLGLDYIEPWERNA"}}, "key": {"LTA-2": {"system": "LTA-2", "experiment": "Template-independent incorporation of LTA-2, LTU-2, LTG-2, LTC-2 to priming strands", "type": "biochemical", "conditions": "single-stranded priming strand", "description": "The template-independent DNA synthesis reactions employed 7.5 U TdT (Promega) or 180 nM (3×over primer) Pfu26 (D141A/E143A/A486L/Y546H/K477W/L409Y) or Pfu48 (D141A/E143A/A486R/Y546H/K477W/L409Y). Varying concentrations of dATP were added to 2 μM (TdT) or 60 nM (Pfu) T7 FOR primer (6′Fam […]) (SEQ ID NO:6) in duplicate reactions containing 1×TdT buffer with CoCl2(Promega) or 1×ThermoPol buffer (NEB). Reactions were incubated for 30 min. at 37° C. (TdT) or 60° C. (Pfu), and then inactivated with heat (TdT; 10 min. at 70° C.) or EDTA (1 ul 500 uM EDTA). Reaction products were exposed to UV using a Stratalinker (15-watt bulbs, […], 10 min). Reactions were diluted in water (TdT, 1:333; Pfu, 1:10) and 1 μl (TdT) or 0.5 μl (Pfu) aliquots were brought up to 10 μl with HiDI/LIZ 120 Size Standard. Products were heated at 95° C. for 5 min., cooled on ice for 2 min., and then analyzed on an ABI 3500 capillary electrophoresis system ([…] capillary, filter set #5, assay=GE5 LIZ120).\nIn this example, primer extension was carried out with LTA-2 (FIG. 1F) as a Rp+Sp racemic mixture of α-thiotriphosphate, using the conditions described in Example 7.\nIn further experiments, single-base extension reactions (10 ul) were performed with an equimolar mixture (3 uM each) of two single-stranded oligommcleotides:\nBoth were labeled with Fam but distinguishable by their lengths using capillary electrophoresis. Primer extension reactions were performed using the following three Pfu mutants at a concentration of 18 nM polymerase: • Pfu10: Pfu polymerase with D141A/E143A/A486L/Y546H/K477W mutations (SEQ ID NO:2) • Pfu26: Pfu polymerase with D141A/E143A/A486L/Y546H/K477W/L409Y mutations (SEQ ID NO:4) • Pfu48: Pfu polymerase with D141A/E143A/A486R/Y546H/K477W/L409Y mutations (SEQ ID NO:5) The extension reactions also employed individual αS-modified LTs in Rp+Sp racemic mixture (namely, LTA-2, LTU-2, LTG-2, and LTC-2) at final concentrations of 5 uM. LTU-2, LTG-2, and LTC-2 are all C7 or C5-hydroxymethyl-a-tert-butyl-2-nitrobenzyl modified reversible terminators like LTA-2, with uracil, guanine, and cytosine in place of adenine. […] Reactions were incubated, stopped, UV-treated, and analyzed as described in Example 7.\n(§1) Primer extensions were carried out in duplicate 25 ul reactions containing 7.5 U calf thymus TdT, 1×Promega TdT buffer (with CoCl2), varying concentrations of LTA-1 (100 uM, 50 uM, 10 uM, 5 uM, or 1 uM), and either 2 uM (FIG. 11A to 11C) or 80 nM (FIG. 11D to 11F) of a priming strand (Fam-labeled T7 F primer (6Fam […]), SEQ ID NO:8). Controls were performed without the addition of a polymerase. Primer extensions were also carried out in reactions containing the Pfu26 mutant polymerase, 60 nM of the priming strand, and various concentrations (10 μM or 5 μM or 1 μM) of LTA-1 or LTA-2."}, "LTA-1": {"system": "LTA-1", "experiment": "Template-independent incorporation of LTA-1 to a priming strand", "type": "biochemical", "description": "This example tested the addition of a 3′-OH unblocked reversible terminator (LTA-1, shown in FIG. 1E, or LTA-2, shown in FIG. 1F) to the 3′ end of a single-stranded priming strand. The extension reaction was performed with 2 uM or 80 nM of a priming strand and varying concentrations (100/50/10/5/1 μM) of the reversible terminator. The performance of the Pfu26 polymerase was compared to TdT polymerase.\nas §1\nReactions were incubated at 37° C. for 30 min., and then heat-killed for 10 min. at 70° C. Reaction products were split in half, and one-half was treated with UV as described in Example 7. Reactions were then diluted 1:333 (2 uM primer) or 1:13 (80 nM primer) in water, and 0.5 ul portions were analyzed by capillary electrophoresis using the conditions provided in Example 7."}}, "note": "“Also recorded” adds a separate entry of the source."}
{"molecule": "B1", "values": [{"measurement": "Template-independent incorporation of LTA-2 (in words)", "setting": "LTA-2", "result": "did not incorporate the LTA-2 terminator as efficiently as dATP; also recorded: failed to incorporate LTA-2"}, {"measurement": "Template-independent incorporation of LTA-1 (in words)", "setting": "LTA-1", "result": "incorporates LTA-1 much more efficiently than the more highly substituted LTA-2"}, {"measurement": "Termination efficiency with LTA-1", "setting": "LTA-1", "result": "poor"}, {"measurement": "Bases incorporated in a single synthesis cycle", "setting": "LTA-1; LTA-1, 80 nM primer", "result": "> 3", "unit": "bases"}, {"measurement": "Bases incorporated in a single synthesis cycle", "setting": "LTA-1; LTA-1, 2 uM primer", "result": 3, "unit": "bases"}]}
